Here are results for 19 sequences from the DeepSol protein solubility set.

The data set can be described thus: soluble on expression in E. coli; label from the status in PepcDB or PDB records.
Consider “GLKEHDFNPEEAEETKQVSWKLVTEYAMETKCDDVLLLLGMYLEFQYSFEMCLKCIKKEQPSHYKYHEKHYANAAIFADSKNQKTICQQAVDTVLAKKRVDSLQLTREQMLTNRFNDLLDRMDIMFGSTGSADIEEWMAGVAWLHCLLPKMDSVVYDFLKCMVYNIPKKRYWLFKGPIDSGKTTLAAALLELCGGKALNVNLPLDRLNFELGVAIDQFLVVFEDVKGTGGESRDLPSGQGINNLDNLRDYLDGSVKVNLEKKHLNKRTQIFPPGIVTMNEYSVPKTLQARFVKQIDFRPKDYLKHCLERSEFLLEKRIIQSGIALLLMLIWYRPVAEFAQSIQSRIVEWKERLDKEFSLSVYQKMKFNVAMGIGVLD”, for which the “soluble on expression in E. coli” value is “soluble”. With “HSSGLVPRGSHMAIIFPGQGAQKVGMAQDLFNNNDQATEILTSAAKTLDFDILETMFTDEEGKLGETENTQPALLTHSSALLAALKNLNPDFTMGHSLGEYSSLVAADVLSFEDAVKIVRKRGQLMAQAFPTGVGSMAAVLGLDFDKVDEICKSLSSDDKIIEPANINCPGQIVVSGHKALIDELVEKGKSLGAKRVMPLAVSGPFHSSLMKVIEEDFSSYINQFEWRDAKFPVVQNVNAQGETDKEVIKSNMVKQLYSPVQFINSTEWLIDQGVDHFIEIGPGKVLSGLIKKINRDVKLTSIQTLEDVKGWNEND” the entry was “soluble”; with “MAHHHHHHMDVLGTCTALVATLQEPQEDIQSRDHYELVLLDGPSLPIVGVSSTGGLLAATSAASAAAAATAAVAAADDTMSSTEAAKESASDSDAAVTRVKTTIDLHQAFARFQRTDSAENYLLDVVYVGDCTMMLIRNGRVCYVTEEQAHQLDYPYQLGTGSNDTPKDGVRLLIPVEKGDIVVMGTDGIFDNLYPHRIVELIWPHLERVFSQHGYLQALGGAETAKAPANAVSYVKNRNLRTLLDDIMAALDMGANAVMADAMTVSRDVRCDSPYASKCIENGALFEGGKPDDMTLLISVIGESDDGEPSEQFSGSETAFPLPYRDWP”, “not soluble”; with “MGHHHHHHSHMLLTPRQDEIVALAKANGRVLVDELAARFSVTPQTIRKDLNDLCDTRVLTRIHGGALFPSGNENVKYEARRAIASVEKQAIGAAAAALIPNNSSLFINIGTTTEAVGEALADHHELMVITNNINVANRLRVFPGIEVVIAGGVVRGSDGGIVGEAAVDFIRQFKVDFAVIGVSAIDEDGALLDFDFREVKVAQAIISNARHVILVSDSLKFERTAPVRIGHLSQVHTFITDHCPVDSIRSICADHDVRLIETEARDA”, “soluble”.

As to “GAADPVVVPANMEPLTIEGNRFVTLCIMIRTTPWEVSRDVKLHPRDEVDWHTLEGVRALREAFATNNPNGRLTWGFTMNALEDGRKNYREIRDYVVECQKKYGDEVTYFPGYFPAMYLPRERVNREMSEAIEIISKMVGNGYRPQSIMGGFLSADNLRYLAEKENIHVAHAVIWSQHNIDGGGADGSPSYPFYPSTEHFCKPAQGKSDFIDCVNLDGWTMDFICARRSGQTGHGIDGYNSRRGVGPIETYKGWGLDLGHREVMHTEAIHFDKGLELNGFGWVANIWEAQMVHEFGKDLICDAMKMWVTGTKERWPDTHFVTFGEFGELWRKQYKSNDDWNYRFVERGSGLGDSYNNLEIKWFMNKEFRLALLRDWHTKNSPAYVIDFTRYDLQAHEPADPSPEKPAKDWSLINKINQKALRPQDKPVLIDKLEKEDQDLIRKYYPELLK”, the “soluble on expression in E. coli” value is “soluble”. With “MSRRLFGRLREALNRASEHIARGIVDTLAYKELKPEDLEPVLDDILIDLVESDVALEAAESIVAGVKEGLTGYRVRRGEPVEKVVRDALRKALLTLLDPGPRPDLAAEARRRCGGRPLVILFLGVNGTGKTTTIAKVAYMLRKAGVTPVIAAADTFRAGAQEQLAVHAEKLGVPIVRGRYGGDPASVAYDAVKHAESRGFCAVLVDTAGRMHVDSNLVEELRKIVRVVKPDYKILVVDSLTGNDAVEQARLFDEAVGVDGVIVTKVDADPKGGTLVSVAHAIRKPILYIGTGQRYEDLRPFDPQKIVDQLLG” the entry was “soluble”; with “MGSDKIHHHHHHMTPRISQKEVNDAVWNACDTFRGVVDASAYKDYVLTMLFLKYISDVWQDNYDTYKAEYGDAPELIEEMMKNERFVLPKDASFYALYERRFEAGNGERIDKALHAIEEANMGKLNDVFQDISFNSTKLGDDKQKNDILRHMLEDFSKPELNLRPSRIGNLDIIGNAYEFLIKHFAASSGKKAGEFYTPPEVSQLIAELVNPQEGDEICDPACGSASLLMKCAKLIKDRFGNRKYALYGQEAIGSTWSLAKMNMFLHSEDNHRIEWGDTLRNPLLLDGDDHLKHFDIVVANPPFSLDKWGHEAAEADRFGRFRRGIPPKTKGDYAFILHMIETLKPGTGRMGVVVPHGVLFRASSEGEIRKQLIKENLLDMVIGLPEKLFYGTGIPAAILVFRKNKKDNNVLFIDASREYQDGKNQNFLRDEDIQKVLDTAKARESVDKYAYLATLEEIRENDFNLNIPRYVDTFEEEEEIDLEAVLKERKELKADLAKLEVEMEGYLKELGYLTGEE”, “not soluble”. With “MSLHELDYYLIELDNPFCSDLPKIIAVHDKNLRYTSMGRGSSIEMRTITAYGEILERYCLWNQTPDLTSAFCADKPMLSPEEQVLPISESIDDREVEWKSYYSLSNHQRIFIHRPINSACYSNYFTQTSNGSAVHETEELAINSALEELIERHLFNIFWLFESNILEKSFSSDEIEHAIESGWRLDFYEIRDYKSCTICVMINRSDRRFSKGAMTVGLSFGSDSDACIRAYTECLQTLEAYLAFDKKVNNASLYYLSGKGTSQWQRKINTSLSSTPLSITKSVFEKYSPYMFTEKTNNDLVYCEVVMPHLIPLQYEHERDIRVNPDLLGHLTHRNMCYPIGEGHHHHHH” the entry was “not soluble”; with “MGSDKIHHHHHHMTLVSTLSFLKKLNKNNNKEWFDKNRSAYEEAKKEVKALVQLVIEKTAVFDPSIASLEPKDCMFRINRDVRFSKDKSPYKTNMGFMIAPGGKKSIKGCYYVHIEPGNCFIAGGIWMPMPEHLKLIRQEIDYNGDALKKIFSSKDVKKYFSDFDEESKLIRMPKDYEETHPYAEWLKLKSFTVTFPIDEAIFSDKKVVEEITKPFKGIHALNAFLNGALDS”, “not soluble”. Consider “HQPVSFGLSVRKSLPKGFSVETGLTYTLLSSDIKRQGDTKMQSQKLHYIGIPVRGNWNFLEKKYFTLYVSAGGMVEKCVYGKLADDKVNVKPLQFSVAGAVGAQFNATDHVGLYVEPGVSYFFDDGSKVQTIRKERPCNFNLQAGLRFTY”, for which the “soluble on expression in E. coli” value was “not soluble”.

Consider “MENSEKLANSKEVIAYIAERFPKCFILEGEAKPLKIGIFQDLAERLSDDPKVSKTQLRAGLRQYTSSWRYLHGVKPGASRVDLDGNPCGELEEEHIEHAKATLEESKAKVATRRKEQAKKAREEAKAKKTARAATPPKRRPQPAAKKVEQPVETRALNADEITVGNNVSVNMGKGNMPATIVEINKDDVRIRLSNGLQMVVKAENLRS”, for which the “soluble on expression in E. coli” value is given as “not soluble”.

Consider “MEVTDVRLRRVNTDGRMRAIASITLDHEFVVHDIRVIDGNNGLFVAMPSKRTPDGEFRDITHPINSSTRGKIQDAVLNEYHRLGDTEALEFEEAGAS”, for which the “soluble on expression in E. coli” value is reported as “soluble”. Under “MNSQNSQKSSSFDDFAGQVVIYTEIGNSKCAKGRDLLHREGIPYTDVSLDSFPQHSQEIFDRTGTDVLPQIFFNNIYIGHETDLERVIGETNKWESLVEHVRREKCTNGGPIVPHPMNAIGFEEYETENNNKCCDEVLWVPDEYSKLVRDMKNAQLIKNNRVKLKVYRNSFKGEELVEWLMRQKGIKRSEALEIGQELIDRHVGQQTSKESGMTFSPDRYYQLVEDDENKPLNAGEDDGDKKQSFPVAECNEKFSKLLKPIFNDILTDDNQSIIYGGLSTNDNFTRYLQFSRELNHVTFEGSTSDDRLTFFINVYNMMLIHITLKHGPPIGIWQRRKLVNGTYYLIGGHRYALHSIINGILRGNKKGPGMLWKAFGKQDARLPISLAVCDPLIYFSLCSGSKTTPPLRVYHSKSIHQEMRENARQTLLRGDKFLRVDMKKNVIHLGKTFKWFSDDFGGSTEKILQWILDVLDTNESDKKHNLQKLFFTGEYSIEYIPYDWSTNGRMDEKEREDIDGGGGGGGDVRRTKTIE” stands “not soluble”.

On to “MQGKIIKSLAGFYYVESEGQVYQTRARGNFRKRGETPYVGDIVDFSAEDNSEGYILAIHPRKNSLVRPPIVNIDQAVVIMSAKEPEFNSNLLDRFLILLEHKAIHPVVYISKMDLLDSPEEIKAIGRQYQAIGYDFVTSLEELLPLLADKITVFMGQTGVGKSTLLNRIAPELALEIGEISDSLGRGRHTTRAVSFYNTHGGKIADTPGFSSLDYDIANAEDLNEAFPELRRLSHECKFRSCTHTHEPKCAVKAALETGELWPVRYEHYLQFLSEIENRRETYKKVIKRK”, for which the “soluble on expression in E. coli” value is on record as “not soluble”.

“MPRKKSAGPRSFGEPLTDDPDDAPELLDEFFRTGEIRVDGKIVRRGRPPLGTQPKSSVTLRLDADVLDAYRALGRGWQSQINADLRRVRKLKKA”: the “soluble on expression in E. coli” value is “not soluble”. With “MSLEKVDFIKEDLIFSLLEKGKITDRNEIREILAKARECKGISLGEVAKLLYLEDEELLEELYDVAKYIKNKIYGKRVVLFAPLYTSNECTNNCLYCGFRHDNKELHRKTLSLEEIVEEAKAIERQGHKRLLLICGEDPRKTNVKHFTDAMEAIYKSTDIRRINVEAAPMTVEDYRELKKAGIGTYVIFQETYHRETYRIMHPVGKKANYDWRITAIDRAFEGGIDDVGVGALFGLYDYRFEVLGLLMHCMHFEEKYGVGPHTISVPRLRPALGAPLKEIPYKVTDKDFKKIVAIFRIAVPYTGIILSTRERAEFRDELLSVGVSQISAGSKTNPGGYQEDDDHADQFEISDNRSLPKVMETICQQGYIPSFCTACYRRCRTGEHFMEYAKAGDIHEFCQPNAILTFKENLMDYADEPLRKMGEEVILKALEEIEDEKMKTLTIAKLEEIEKGKRDIYFEGHHHHHH” the entry was “soluble”. With “AIAMQISDTYNQKHSLFNAMNRFIGAVNNMDQTVMVPSLLRDVPLDMEVKDEVHNTIGATNYFSRTDMHGYYILLKSIRNDIEWGVVQGEDRKKDKLSNMEISRLEDGDGEEDLEKQFHYHLSGLHTVLNKLTRKAHILTNRYKEEIGFGSWGH” the entry was “soluble”. Turning to “MELDLISYELDEKTKEGIEKVVEKFFTKAEPDLVLIFDKAGRILACKGMDISDTYSEFISSILSALFFASEELTSMLDKNDEMKDVFYETKNRVFLMARLEKDFLIGVISRKNLSLGSIRLFFNHLVSDLNAVLKNLKEVEKKSLKISKEELKKKLDQILGS”, the “soluble on expression in E. coli” value is “not soluble”.

With “MKTLYDKLWSDHVVHAESDDPNGMVILYIDRHLVHEVTSPQAFESLKLAGRKPWRTGSILAVADHNVPTTDRSSGISDPVSRLQVETLDQNCEEFAITEFRMNDERQGIVHVIGPEQGATLPGMTVVCGDSHTSTHGAFACLAFGIGTSEVEHVLATQCLVARKSKTMLVRVEGDLPPGVTAKDIALAVIGEIGTAGGTGYAIEFAGSAIRSLSMEGRMTLCNMAIEAGARAGMVGADEVTIDYIKGRPFAPQGALWDQAVAYWRTLKSDEDAVFDRMVELKAVNIKPQVTWGTSPEMVTTVDGYVPDPADISDPTKRHDVEHALGYMGLKPKMPIQEITLDKVFIGSCTNSRIEDLRAAAEIVKGKRIAPNIRLAMVVPGSGLVKSMAEKEGLDKIFLSAGFEWREPGCSMCLAMNDDRLLPGERCASTSNRNFEGRQGPGGRTHLVSPAMAAAAAIAGHFVDVRSFIR”, the “soluble on expression in E. coli” value is “not soluble”.
